The target in assay [1] is T1, AnkG_repeats (24 ANK repeats of rat 190 kDa ankyrin-G, residues 38–855) (rat, UniProt O70511 38-855).
T1 chain: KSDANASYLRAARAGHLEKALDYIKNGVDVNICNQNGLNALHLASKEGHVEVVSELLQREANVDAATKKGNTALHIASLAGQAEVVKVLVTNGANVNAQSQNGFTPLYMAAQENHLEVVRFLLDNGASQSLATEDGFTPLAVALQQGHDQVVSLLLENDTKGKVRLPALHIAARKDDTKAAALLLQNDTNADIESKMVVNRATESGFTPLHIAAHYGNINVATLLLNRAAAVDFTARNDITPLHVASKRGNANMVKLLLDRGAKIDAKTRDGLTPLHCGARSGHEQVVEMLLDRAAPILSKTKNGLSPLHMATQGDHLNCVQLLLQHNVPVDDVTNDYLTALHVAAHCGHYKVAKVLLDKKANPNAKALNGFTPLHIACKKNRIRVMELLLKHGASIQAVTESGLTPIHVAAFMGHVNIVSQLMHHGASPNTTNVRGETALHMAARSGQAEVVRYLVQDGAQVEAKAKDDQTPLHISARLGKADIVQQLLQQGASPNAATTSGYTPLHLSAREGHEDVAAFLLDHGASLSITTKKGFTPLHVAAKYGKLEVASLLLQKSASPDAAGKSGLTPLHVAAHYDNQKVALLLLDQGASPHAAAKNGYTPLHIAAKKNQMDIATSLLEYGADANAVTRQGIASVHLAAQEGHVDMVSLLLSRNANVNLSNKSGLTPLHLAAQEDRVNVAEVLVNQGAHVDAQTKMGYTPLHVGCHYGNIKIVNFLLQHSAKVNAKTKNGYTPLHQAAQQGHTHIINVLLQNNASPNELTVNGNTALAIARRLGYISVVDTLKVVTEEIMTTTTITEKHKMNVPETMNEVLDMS
The assay is described as follows: ITC.

Assay [2] has as its target T2, AnkB_repeats (24 ANK repeats of human 220 kDa ankyrin-B, residues 28–873) (human, UniProt Q01484 28-873).
T2 construct: ankyrin-B (AnkB), human, 220 kDa isoform used as template, ANK repeats, residues 28-873; source: E. coli BL21 (DE3), purified
T2 sequence (looked up): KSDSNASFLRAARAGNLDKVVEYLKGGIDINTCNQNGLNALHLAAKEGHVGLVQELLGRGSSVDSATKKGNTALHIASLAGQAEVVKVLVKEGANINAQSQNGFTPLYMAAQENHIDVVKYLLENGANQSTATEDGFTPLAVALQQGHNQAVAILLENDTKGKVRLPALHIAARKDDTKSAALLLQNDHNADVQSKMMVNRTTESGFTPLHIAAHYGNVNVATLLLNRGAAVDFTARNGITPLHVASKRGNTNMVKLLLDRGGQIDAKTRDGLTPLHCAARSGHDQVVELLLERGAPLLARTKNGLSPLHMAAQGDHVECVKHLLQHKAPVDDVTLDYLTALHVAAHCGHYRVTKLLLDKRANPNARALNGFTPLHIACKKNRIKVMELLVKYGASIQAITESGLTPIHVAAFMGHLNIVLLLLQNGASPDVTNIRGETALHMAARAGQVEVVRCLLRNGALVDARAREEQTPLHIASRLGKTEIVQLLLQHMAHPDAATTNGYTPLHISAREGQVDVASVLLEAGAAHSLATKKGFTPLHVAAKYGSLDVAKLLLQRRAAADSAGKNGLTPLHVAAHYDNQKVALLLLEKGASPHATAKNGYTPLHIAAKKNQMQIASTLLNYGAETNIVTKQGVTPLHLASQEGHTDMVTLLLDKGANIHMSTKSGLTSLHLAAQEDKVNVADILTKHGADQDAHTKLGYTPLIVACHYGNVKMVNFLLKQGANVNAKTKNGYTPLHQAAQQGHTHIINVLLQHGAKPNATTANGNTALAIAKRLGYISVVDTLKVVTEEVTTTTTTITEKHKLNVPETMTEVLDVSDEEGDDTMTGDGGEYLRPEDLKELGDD
The assay is described as follows: ITC; VP-ITC at 25°C; 50 mM Tris pH 7.5, 100 mM NaCl, 1 mM EDTA, 1 mM DTT; binding partner (AS, Nav1.2 ABD proteins, neurofascin ABD; 200–300 µM) in the syringe, ANK repeats (20–30 µM) in the cell; one-site binding model. As to conditions: both partners purified.

Assay [3] deals with T3, AnkG ANK repeats R1–6 (truncation of AnkG_repeats with C-terminal capping sequence) (rat | human).
T3 chain: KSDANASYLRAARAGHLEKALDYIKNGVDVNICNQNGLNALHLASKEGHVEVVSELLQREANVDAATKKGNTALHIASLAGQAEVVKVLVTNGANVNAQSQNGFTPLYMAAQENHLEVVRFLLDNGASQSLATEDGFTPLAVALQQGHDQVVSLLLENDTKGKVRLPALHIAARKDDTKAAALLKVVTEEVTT
The assay is described as follows: ITC.

The target in the next assay is T4, AnkB R1-14 (Homo sapiens).
T4 chain: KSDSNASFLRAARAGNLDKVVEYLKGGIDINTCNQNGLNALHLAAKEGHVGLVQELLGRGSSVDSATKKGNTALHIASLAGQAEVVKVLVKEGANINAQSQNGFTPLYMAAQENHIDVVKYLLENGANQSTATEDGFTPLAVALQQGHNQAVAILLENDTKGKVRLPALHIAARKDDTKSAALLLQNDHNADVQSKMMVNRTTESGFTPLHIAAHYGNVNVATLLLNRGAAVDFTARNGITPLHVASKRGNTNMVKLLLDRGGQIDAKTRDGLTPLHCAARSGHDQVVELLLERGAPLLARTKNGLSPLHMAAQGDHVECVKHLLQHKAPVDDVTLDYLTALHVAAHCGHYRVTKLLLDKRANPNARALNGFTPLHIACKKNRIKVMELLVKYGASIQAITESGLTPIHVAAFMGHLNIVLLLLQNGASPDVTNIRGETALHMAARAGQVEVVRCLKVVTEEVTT
The assay is described as follows: ITC.

The target in assay [4] is T5, AnkB_repeats_R1–9 (first nine ANK repeats of AnkB, residues 28–318, followed by the capping sequence 814–822) (human, UniProt Q01484 28-318; Q01484 814-822).
T5 chain: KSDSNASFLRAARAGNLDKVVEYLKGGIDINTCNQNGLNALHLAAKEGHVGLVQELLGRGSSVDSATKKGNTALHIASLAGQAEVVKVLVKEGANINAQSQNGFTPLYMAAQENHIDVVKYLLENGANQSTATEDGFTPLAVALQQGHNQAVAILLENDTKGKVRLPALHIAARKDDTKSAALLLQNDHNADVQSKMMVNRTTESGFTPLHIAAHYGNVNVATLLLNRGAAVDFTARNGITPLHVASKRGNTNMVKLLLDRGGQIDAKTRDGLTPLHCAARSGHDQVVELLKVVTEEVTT
As to the kind of experiment: ITC.

Assay [5] has as its target T1, AnkG_repeats (24 ANK repeats of rat 190 …). The assay is described as follows: ITC.
For assay [6], the target named is T6, AnkR_repeats (24 ANK repeats of ankyrin-R, residues 42–853) (mouse, UniProt Q02357-6 42-853).
T6 construct: ankyrin-R (AnkR), mouse, ANK repeats, residues 42-853, PCR amplified from a mouse muscle cDNA library; The thioredoxin-His6 tag was removed with HRV 3C protease 'when needed'; also called AnkR ANK repeats; source: E. coli BL21 (DE3), purified
T6 sequence (looked up): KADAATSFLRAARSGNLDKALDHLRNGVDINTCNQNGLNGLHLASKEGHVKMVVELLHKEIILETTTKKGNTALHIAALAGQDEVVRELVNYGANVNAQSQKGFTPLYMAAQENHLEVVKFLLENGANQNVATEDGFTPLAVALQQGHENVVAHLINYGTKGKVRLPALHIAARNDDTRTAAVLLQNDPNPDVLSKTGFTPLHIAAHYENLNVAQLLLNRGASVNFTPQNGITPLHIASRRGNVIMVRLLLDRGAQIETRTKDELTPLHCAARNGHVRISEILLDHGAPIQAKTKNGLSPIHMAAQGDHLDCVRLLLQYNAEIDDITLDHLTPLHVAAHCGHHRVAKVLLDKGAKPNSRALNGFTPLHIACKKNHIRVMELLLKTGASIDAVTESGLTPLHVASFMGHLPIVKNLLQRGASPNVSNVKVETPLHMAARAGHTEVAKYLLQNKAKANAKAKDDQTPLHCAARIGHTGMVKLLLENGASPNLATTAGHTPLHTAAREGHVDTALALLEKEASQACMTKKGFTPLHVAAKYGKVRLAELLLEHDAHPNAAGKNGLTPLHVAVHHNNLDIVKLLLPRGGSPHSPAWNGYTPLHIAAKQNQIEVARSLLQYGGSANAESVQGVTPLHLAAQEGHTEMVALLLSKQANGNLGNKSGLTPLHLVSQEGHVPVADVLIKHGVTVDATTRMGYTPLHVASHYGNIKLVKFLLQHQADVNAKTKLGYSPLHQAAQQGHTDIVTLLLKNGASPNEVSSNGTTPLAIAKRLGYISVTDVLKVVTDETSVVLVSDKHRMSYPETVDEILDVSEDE
The assay is described as follows: ITC; VP-ITC at 25°C; 50 mM Tris pH 7.5, 100 mM NaCl, 1 mM EDTA, 1 mM DTT; binding partner (AS, Nav1.2 ABD proteins, neurofascin ABD; 200–300 µM) in the syringe, ANK repeats (20–30 µM) in the cell; one-site binding model. Conditions: both partners purified.

The target in assay [7] is T7, AnkG_repeats (24 ANK repeats of rat 190 kDa ankyrin-G, residues 38–855) (rat, UniProt O70511 38-855).
T7 construct: ankyrin-G (AnkG), rat, 190 kDa isoform used as template, ANK repeats, residues 38-855; also called AnkG ANK repeats; wild-type ANK repeats; source: E. coli BL21 (DE3), purified
T7 sequence (looked up): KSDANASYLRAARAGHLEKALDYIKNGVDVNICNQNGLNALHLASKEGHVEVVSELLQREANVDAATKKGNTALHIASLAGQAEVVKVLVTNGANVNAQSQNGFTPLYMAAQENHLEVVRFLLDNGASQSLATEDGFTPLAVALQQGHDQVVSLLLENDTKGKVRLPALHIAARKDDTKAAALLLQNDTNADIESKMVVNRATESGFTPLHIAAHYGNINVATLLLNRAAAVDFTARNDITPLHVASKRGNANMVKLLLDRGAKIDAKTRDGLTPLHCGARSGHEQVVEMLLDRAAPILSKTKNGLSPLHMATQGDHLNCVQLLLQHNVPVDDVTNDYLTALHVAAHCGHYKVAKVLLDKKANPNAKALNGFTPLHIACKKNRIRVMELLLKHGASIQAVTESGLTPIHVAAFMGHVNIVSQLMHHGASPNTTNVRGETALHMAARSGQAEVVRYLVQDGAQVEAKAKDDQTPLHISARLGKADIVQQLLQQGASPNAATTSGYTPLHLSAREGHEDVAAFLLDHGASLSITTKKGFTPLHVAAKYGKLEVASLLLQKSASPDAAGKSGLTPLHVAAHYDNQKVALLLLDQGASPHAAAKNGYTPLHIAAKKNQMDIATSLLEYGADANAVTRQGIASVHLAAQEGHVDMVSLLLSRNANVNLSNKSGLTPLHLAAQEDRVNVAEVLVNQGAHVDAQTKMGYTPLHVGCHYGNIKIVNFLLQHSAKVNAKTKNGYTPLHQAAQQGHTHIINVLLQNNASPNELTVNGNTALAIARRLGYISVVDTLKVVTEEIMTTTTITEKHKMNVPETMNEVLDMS
The description is as above. As to conditions: both partners purified.

B1: AnkR_AS (48-residue auto-inhibitory segment of AnkR, residues 1577–1624) (domain or fragment, mouse, UniProt Q02357-6 1577-1624, looked up)
chain: CADQYWNEVTVIDAIPLAATEHDTMLEMSDMQVWSAGLTPSLVTAEDS
notes: Free AS in ITC; source: E. coli BL21 (DE3), purified
As for B1, the Kd in assay [1] was found to be 460 nM; in assay [2], 400 nM.

B2: Nav1.2_ABD (ankyrin binding domain of Nav1.2, residues 1035–1129) (domain or fragment)
chain: KALDEIKPLEDLNNKKDSCISNHTTIEIGKDLNYLKDGNGTTSGIGSSVEKYVVDESDYMSFINNPSLTVTVPIAVGESDFENLNTEEFSSESDM
Regarding B2, the Kd in assay [3] was 2300 nM; in the assay with AnkB R1-14 it was 290 nM; in assay [4], 3500 nM.

B3: E1112K-Nav1.2 (ABD with the charge reversal mutation E1112K) (domain or fragment)
chain: KALDEIKPLEDLNNKKDSCISNHTTIEIGKDLNYLKDGNGTTSGIGSSVEKYVVDESDYMSFINNPSLTVTVPIAVGKSDFENLNTEEFSSESDM
B3: in assay [5], the Kd was > 50000 nM.

B4: AnkR entire C-terminal regulatory domain (residues 1529–1907) (domain or fragment, mouse, UniProt Q02357-6 1529-1907, looked up)
chain: RQSRNLKPERRHGDREYSLSPSQVNGYSSLQDELLSPASLQYALPSPLCADQYWNEVTVIDAIPLAATEHDTMLEMSDMQVWSAGLTPSLVTAEDSSLECSKAEDSDAIPEWKLEGAHSEDTQGPELGSQDLVEDDTVDSDATNGLADLLGQEEGQRSEKKRQEVSGTEQDTETEVSLVSGQQRVHARITDSPSVRQVLDRSQARTLDWDKQGSTAVHPQEATQSSWQEEVTQGPHSFQRRITTIQGPEPGALQEYEQVLVSTREHVQRGPPETGSPKAGKEPSLWAPESAFSQEVQGDELQNIPGEQVTEEQFTDEQGNIVTKKIIRKVVRQVDSSGAIDTQQHEEVELRGSGLQPDLIEGRKGAQIVKRASLKRGKQ
notes: also called full length AnkR C-terminal domain; C-terminal tail of AnkR; source: E. coli BL21 (DE3), purified
For B4, the Kd in assay [6] was ~1000 nM.

B5: Nav1.2 ABD-N (N-terminal 68-residue fragment of loop 2, residues 1035–1102) (domain or fragment)
chain: KALDEIKPLEDLNNKKDSCISNHTTIEIGKDLNYLKDGNGTTSGIGSSVEKYVVDESDYMSFINNPSL
In the case of B5, the Kd in assay [7] is ~8000 nM.
